US12410262B2, “Peptide conjugates of cytotoxins as therapeutics” (Cybrexa 2, Inc., priority 2019, dated 2025)
Read-outs that look alike come from different tables or passages of the source. Residues, ends and D or L forms follow the SMILES beside them. *: point of attachment. X6 = CC[C@@]1(O)C(=O)OCc2c1cc1n(c2=O)Cc2c-1nc1cc(F)c(C)c3c1c2[C@@H](NC(=O)OCC1(S*)CCC1)CC3

Experiments:
[1] = Glutathione cleavage study; format: in vitro ADME; settings: for remaining at 4 h, 100 µM / remaining at 24 h, 100 µM: Tris buffer with 10 mM glutathione, Glutathione Challenge (10 mM), 100 μM conjugate, Tris pH 7.5, 37° C.
Method: A 20 mM stock of conjugate was prepared in 100% DMSO. The stocks were subsequently diluted in 100 mM Tris, pH 7.5, to yield an intermediate dilution of 500 μM followed by an additional dilution of 1:5 in 100 mM Tris, pH 7.5 to give a final concentration of 100 μM of conjugate. 100 mM glutathione was prepared immediately prior to use in H2O and diluted 1:10 in challenge samples for a final glutathione challenge concentration of 10 mM. Samples were mixed by inversion and incubated at 37° C. for up to 24 hrs. […]
(§1) Samples were thawed and extracted as follows: 8 μL of 25% phosphoric acid followed by 117 μL of 100% acetonitrile/0.1% TFA were added to each sample, mixed and centrifuged at 13000×G for 10 minutes. The supernatant was pipetted into 0.2 mL HPLC vials and placed on a Perkin Elmer Flexar HPLC autosampler. The following table summarizes HPLC conditions:
Data was analyzed by calculating the percentage reduction of compound (area of retention time peak of […] conjugate/area of retention time peak of conjugate at time 0)×100.

[2] = Plasma stability studies; format: in vitro ADME; settings: rat plasma, 100 μM conjugate, 37° C.
Method: A 20 mM stock of conjugate was prepared in 100% DMSO. The stocks were subsequently diluted in 100 mM Tris, pH 7.5 to yield an intermediate dilution of 500 μM and then diluted 1:5 directly into rat plasma to yield a final concentration of 100 μM of conjugate. Samples were mixed by inversion and incubated at 37° C. for up to 24 h. 50 μL samples were aliquoted into siliconized microfuge tubes at time 0, 4, and 24 h and immediately frozen at −80° C.
as §1, with “100% Acetonitrile/0.1%” for “100% acetonitrile/0.1%”, “TFA was” for “TFA were”
Data was analyzed by calculating the percentage reduction of compound (area of retention time peak of incubated conjugate/area of retention time peak of conjugate at time 0)×100.

[3] = tested on: HCT116; assay: cells; format: cell-based, human
Method: (§2) Cells were plated in 96 well black walled-clear bottom plates (Griener), DLD-1 WT cells at 2500 cells per well, FaDu, and HeLa cells at 5000 cells per well, and HCT116 at 3000 cells per well, in growth media containing 10% FBS. Cells were allowed to adhere at room temperature for 60 minutes before returning to a 37 C, 5% CO2 incubator. After 24 hours, media was removed and replaced with fresh growth media containing various drug concentrations. Each drug concentration was added in triplicate. Non-drug treated controls contained growth media only. Cells were returned to the incubator. Ninety-six hours after addition of drug, cells were fixed with 4% paraformaldehyde for 20 minutes and stained with Hoechst at 1 ug/mL. The plates were imaged on a Cytation 5 auto imager (BioTek) and cells were counted using CellProfiler (http://cellprofiler.org). The percent cell growth delay was calculated and data plotted using GraphPad Prism

[4] = tested on: FaDu; assay: cells; format: cell-based; settings: FaDu cells, 96 h after addition of drug; read-out: FaDu (IC50)
Method: as §2

[5] = tested on: HeLa cells; assay: cells; format: cell-based; settings: HeLa cells, 96 h after addition of drug; read-out: HeLa (IC50)
Method: as §2

Row | SMILES | remaining at 4 h, 100 µM [1] [%] | remaining at 24 h, 100 µM [1] [%] | remaining at 4 h, 100 µM [2] [%] | remaining at 24 h, 100 µM [2] [%] | IC50 ([3]; 96 h) [nM] | IC50 [4] [nM] | IC50 [5] [nM] | IC50 ([3]; HCT116 cells, 96 h after addition of drug, read-out: HCT116 (IC50)) [nM] | degradation on glutathione exposure (FIG. 10) ([1]; 10 mM glutathione over 16 h)
1 | CC[C@@]1(O)C(=O)OCc2c1cc1n(c2=O)Cc2c-1nc1cc(F)c(C)c3c1c2[C@@H](NC(=O)O[C@@H]1COCC[C@H]1SSC[C@H](NC(=O)[C@H](Cc1c[nH]c2ccccc12)NC(=O)[C@H](CC(C)C)NC(=O)[C@H](CC(C)C)NC(=O)[C@H](CC(=O)O)NC(=O)[C@H](CC(C)C)NC(=O)[C@H](CC(C)C)NC(=O)[C@H](CC(C)C)NC(=O)[C@@H](NC(=O)[C@H](CC(=O)O)NC(=O)[C@@H](NC(=O)[C@@H]1CCCN1C(=O)[C@H](Cc1ccccc1)NC(=O)[C@H](CC(C)C)NC(=O)[C@H](CC(C)C)NC(=O)[C@H](CC(=O)O)NC(=O)[C@H](CC(C)C)NC(=O)[C@H](Cc1ccc(O)cc1)NC(=O)[C@H](C)NC(=O)[C@H](CCCNC(=N)N)NC(=O)[C@H](Cc1c[nH]c2ccccc12)NC(=O)[C@@H]1CCCN1C(=O)[C@H](CC(N)=O)NC(=O)[C@H](CCC(N)=O)NC(=O)[C@H](CC(=O)O)NC(=O)[C@H](CC(=O)O)NC(=O)[C@H](C)N)[C@@H](C)O)[C@@H](C)O)C(=O)NCC(=O)O)CC3 [Compound 20] | 5.2 | 8 | 98.7 | 95.8 | 7.9 | – | – | – | –
2 | CC[C@@]1(O)C(=O)OCc2c1cc1n(c2=O)Cc2c-1nc1cc(F)c(C)c3c1c2[C@@H](NC(=O)O[C@@H]1CCC[C@H]1SSC[C@H](NC(=O)[C@H](Cc1c[nH]c2ccccc12)NC(=O)[C@H](CC(C)C)NC(=O)[C@H](CC(C)C)NC(=O)[C@H](CC(=O)O)NC(=O)[C@H](CC(C)C)NC(=O)[C@H](CC(C)C)NC(=O)[C@H](CC(C)C)NC(=O)[C@@H](NC(=O)[C@H](CC(=O)O)NC(=O)[C@@H](NC(=O)[C@@H]1CCCN1C(=O)[C@H](Cc1ccccc1)NC(=O)[C@H](CC(C)C)NC(=O)[C@H](CC(C)C)NC(=O)[C@H](CC(=O)O)NC(=O)[C@H](CC(C)C)NC(=O)[C@H](Cc1ccc(O)cc1)NC(=O)[C@H](C)NC(=O)[C@H](CCCNC(=N)N)NC(=O)[C@H](Cc1c[nH]c2ccccc12)NC(=O)[C@@H]1CCCN1C(=O)[C@H](CC(N)=O)NC(=O)[C@H](CCC(N)=O)NC(=O)[C@H](CC(=O)O)NC(=O)[C@H](CC(=O)O)NC(=O)[C@H](C)N)[C@@H](C)O)[C@@H](C)O)C(=O)NCC(=O)O)CC3 [Compound 14] | 14.9 | 6.5 | 106 | 106 | 4.7 | – | – | – | –
3 | CC[C@H](C)[C@H](NC(=O)[C@@H]1CCCN1C(=O)[C@H](CC(N)=O)NC(=O)[C@H](CCC(N)=O)NC(=O)[C@H](CCC(=O)O)NC(=O)[C@H](C)N)C(=O)N[C@@H](Cc1ccc(O)cc1)C(=O)N[C@@H](Cc1c[nH]c2ccccc12)C(=O)N[C@@H](C)C(=O)N[C@@H](CCCNC(=N)N)C(=O)N[C@@H](Cc1ccc(O)cc1)C(=O)N[C@@H](C)C(=O)N[C@@H](CC(=O)O)C(=O)N[C@@H](Cc1c[nH]c2ccccc12)C(=O)N[C@@H](CC(C)C)C(=O)N[C@@H](Cc1ccccc1)C(=O)N[C@H](C(=O)N[C@H](C(=O)N1CCC[C@H]1C(=O)N[C@@H](CC(C)C)C(=O)N[C@@H](CC(C)C)C(=O)N[C@@H](CC(C)C)C(=O)N[C@@H](CC(C)C)C(=O)N[C@@H](CC(=O)O)C(=O)N[C@@H](CC(C)C)C(=O)N[C@@H](C)C(=O)N[C@@H](CC(C)C)C(=O)N[C@@H](CC(C)C)C(=O)N[C@H](C(=O)N[C@@H](CC(=O)O)C(=O)N[C@@H](C)C(=O)N[C@@H](CC(=O)O)C(=O)N[C@@H](CCC(=O)O)C(=O)N[C@@H](CSSC1(COC(=O)N[C@H]2CCc3c(C)c(F)cc4nc5c(c2c34)Cn2c-5cc3c(c2=O)COC(=O)[C@]3(O)CC)CCC1)C(=O)NCC(=O)O)C(C)C)[C@@H](C)O)[C@@H](C)O [Compound 3] (H-AEQNPIYWARYADWLFTTPLLLLDLALLVDADEC(X6)G-OH; N-terminus and C-terminus assumed) | – | – | – | – | – | 5.9 | 7.6 | 8.33 | –
4 | CC[C@@]1(O)C(=O)OCc2c1cc1n(c2=O)Cc2c-1nc1cc(F)c(C)c3c1c2[C@@H](NC(=O)O[C@H]1CCCCC[C@@H]1SSC[C@H](NC(=O)[C@H](Cc1c[nH]c2ccccc12)NC(=O)[C@H](CC(C)C)NC(=O)[C@H](CC(C)C)NC(=O)[C@H](CC(=O)O)NC(=O)[C@H](CC(C)C)NC(=O)[C@H](CC(C)C)NC(=O)[C@H](CC(C)C)NC(=O)[C@@H](NC(=O)[C@H](CC(=O)O)NC(=O)[C@@H](NC(=O)[C@@H]1CCCN1C(=O)[C@H](Cc1ccccc1)NC(=O)[C@H](CC(C)C)NC(=O)[C@H](CC(C)C)NC(=O)[C@H](CC(=O)O)NC(=O)[C@H](CC(C)C)NC(=O)[C@H](Cc1ccc(O)cc1)NC(=O)[C@H](C)NC(=O)[C@H](CCCNC(=N)N)NC(=O)[C@H](Cc1c[nH]c2ccccc12)NC(=O)[C@@H]1CCCN1C(=O)[C@H](CC(N)=O)NC(=O)[C@H](CCC(N)=O)NC(=O)[C@H](CC(=O)O)NC(=O)[C@H](CC(=O)O)NC(=O)[C@H](C)N)[C@@H](C)O)[C@@H](C)O)C(=O)NCC(=O)O)CC3 [Compound 23] | 61.4 | 13.2 | 92 | 92 | 11.9 | – | – | – | –
5 | CC[C@@]1(O)C(=O)OCc2c1cc1n(c2=O)Cc2c-1nc1cc(F)c(C)c3c1c2[C@@H](NC(=O)O[C@H]1CCc2ccccc2[C@@H]1SSC[C@H](NC(=O)[C@H](Cc1c[nH]c2ccccc12)NC(=O)[C@H](CC(C)C)NC(=O)[C@H](CC(C)C)NC(=O)[C@H](CC(=O)O)NC(=O)[C@H](CC(C)C)NC(=O)[C@H](CC(C)C)NC(=O)[C@H](CC(C)C)NC(=O)[C@@H](NC(=O)[C@H](CC(=O)O)NC(=O)[C@@H](NC(=O)[C@@H]1CCCN1C(=O)[C@H](Cc1ccccc1)NC(=O)[C@H](CC(C)C)NC(=O)[C@H](CC(C)C)NC(=O)[C@H](CC(=O)O)NC(=O)[C@H](CC(C)C)NC(=O)[C@H](Cc1ccc(O)cc1)NC(=O)[C@H](C)NC(=O)[C@H](CCCNC(=N)N)NC(=O)[C@H](Cc1c[nH]c2ccccc12)NC(=O)[C@@H]1CCCN1C(=O)[C@H](CC(N)=O)NC(=O)[C@H](CCC(N)=O)NC(=O)[C@H](CC(=O)O)NC(=O)[C@H](CC(=O)O)NC(=O)[C@H](C)N)[C@@H](C)O)[C@@H](C)O)C(=O)NCC(=O)O)CC3 [Compound 24] | 20.8 | 4.2 | 87 | 87 | 3.4 | – | – | – | –
6 | CC[C@@]1(O)C(=O)OCc2c1cc1n(c2=O)Cc2c-1nc1cc(F)c(C)c3c1c2[C@@H](NC(=O)CCSSC[C@H](NC(=O)[C@H](Cc1c[nH]c2ccccc12)NC(=O)[C@H](CC(C)C)NC(=O)[C@H](CC(C)C)NC(=O)[C@H](CC(=O)O)NC(=O)[C@H](CC(C)C)NC(=O)[C@H](CC(C)C)NC(=O)[C@H](CC(C)C)NC(=O)[C@@H](NC(=O)[C@H](CC(=O)O)NC(=O)[C@@H](NC(=O)[C@@H]1CCCN1C(=O)[C@H](Cc1ccccc1)NC(=O)[C@H](CC(C)C)NC(=O)[C@H](CC(C)C)NC(=O)[C@H](CC(=O)O)NC(=O)[C@H](CC(C)C)NC(=O)[C@H](Cc1ccc(O)cc1)NC(=O)[C@H](C)NC(=O)[C@H](CCCNC(=N)N)NC(=O)[C@H](Cc1c[nH]c2ccccc12)NC(=O)[C@@H]1CCCN1C(=O)[C@H](CC(N)=O)NC(=O)[C@H](CCC(N)=O)NC(=O)[C@H](CC(=O)O)NC(=O)[C@H](CC(=O)O)NC(=O)[C@H](C)N)[C@@H](C)O)[C@@H](C)O)C(=O)NCC(=O)O)CC3 [Compound 29] | 3.1 | 5.9 | 116 | 110 | 69 | – | – | – | released much faster than Compound 11
